Experimental data reported in article PMC3458536 (Nucleic Acids Research, 2012).

B1: GST-U2AF35 (natural protein)
chain: MAEYLASIFGTEKDKVNCSFYFKIGACRHGDRCSRLHNKPTFSQTIALLNIYRNPQNSSQSADGLRCAVSDVEMQEHYDEFFEEVFTEMEEKYGEVEEMNVCDNLGDHLVGNVYVKFRREEDAEKAVIDLNNRWFNGQPIHAELSPVTDFREACCRQYEMGECTRGGFCNFMHLKPISRELRRELYGRRRKKHRSRSRSRERRSRSRDRGRGGGGGGGGGGGGRERDRRRSRDRERSGRF
B2: His-C (C-terminal B/A repeat domain of YB-1, amino acids 128-324) (domain or fragment)
chain: PGGVPVQGSKYAADRNHYRRYPRRRGPPRNYQQNYQNSESGEKNEGSESAPEGQAQQRRPYRRRRFPPYYMRRPYGRRPQYSNPPVQGEVMEGADNQGAGEQGRPVRQNMYRGYRPRFRRGPPRQRQPREDGNEEDKENQGDETQGQQPPQRRYRRNFNYRRRRPENPKPQDGKETKAADPPAENSSAPEAEQGGAE

How the values were obtained:
Assay in all cases: pull-down
[1] = target: His-YB-1 (recombinant His-tagged full-length YB-1) (human, UniProt P67809 1-324)
GST-U2AF65 = GST-U2AF65 (UniProt P26368 1-475)
GST-U2AF35 = target: B1

Sequence of GST-U2AF65 (P26368 whole entry, one chain of several): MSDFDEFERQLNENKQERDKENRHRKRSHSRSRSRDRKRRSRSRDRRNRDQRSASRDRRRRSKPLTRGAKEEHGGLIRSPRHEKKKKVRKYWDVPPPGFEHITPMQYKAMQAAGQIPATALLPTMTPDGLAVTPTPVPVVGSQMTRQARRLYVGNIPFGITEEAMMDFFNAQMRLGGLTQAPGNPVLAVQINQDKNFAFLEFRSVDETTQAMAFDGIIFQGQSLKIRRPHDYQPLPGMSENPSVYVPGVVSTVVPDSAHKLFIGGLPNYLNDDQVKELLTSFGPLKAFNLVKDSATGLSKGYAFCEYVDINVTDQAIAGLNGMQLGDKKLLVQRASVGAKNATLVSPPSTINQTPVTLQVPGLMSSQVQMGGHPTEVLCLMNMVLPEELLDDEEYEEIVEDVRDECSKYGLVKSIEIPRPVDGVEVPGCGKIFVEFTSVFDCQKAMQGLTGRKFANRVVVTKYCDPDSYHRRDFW

Row | Binder | binding result [1] | binding result (GST-U2AF65) | binding result (GST-U2AF35)
1 | B1 | binds | – | –
2 | B2 | – | binds | binds
